# Results published in publication PMC7840946 (Nature Communications, 2021).
# B1: p4-36gl, predicted germline version of mAb p4-36 (antibody, V domains shown)
# VH: EVQLVESGGGLVQPGRSLRLSCTASGFTFGDYAMSWVRQAPGKGLEWVGFIRSKAYGGTTEYAASVKGRFTISRDDSKSIAYLQMNSLKTEDTAVYYCTGPRPYYDSSGYYPYYFDYWGQGTLVTVSS
# VL: QSALTQPRSVSGSPGQSVTISCTGTSSDVGGYNYVSWYQQHPGKAPKLMIYDVSKRPSGVPDRFSGSKSGNTASLTISGLQAEDEADYYCCSYAGSYTYVVFGGGTKLTVL
# notes: also called germline (gl) version of p4-36
# Target: PstS1 (Rv0934), recombinant, wild type (Mycobacterium tuberculosis H37Rv, UniProt P9WGU1)
# Sequence (P9WGU1 25-374): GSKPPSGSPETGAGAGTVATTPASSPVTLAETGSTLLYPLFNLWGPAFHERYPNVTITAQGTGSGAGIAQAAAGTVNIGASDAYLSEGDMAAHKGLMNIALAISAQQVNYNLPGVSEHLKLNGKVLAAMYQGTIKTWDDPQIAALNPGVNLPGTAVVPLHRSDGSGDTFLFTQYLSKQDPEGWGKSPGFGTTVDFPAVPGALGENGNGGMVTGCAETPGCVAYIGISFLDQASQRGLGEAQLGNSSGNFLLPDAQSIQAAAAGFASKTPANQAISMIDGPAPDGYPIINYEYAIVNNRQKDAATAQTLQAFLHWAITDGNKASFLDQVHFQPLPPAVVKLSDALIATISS
# Experiment: SPR
# Conditions: both partners purified
binder,measurement,value
B1,fold reduction in affinity against the mature p4-36,4.7 fold
